# Assay results: patent publication US20210403593A1 (TIZONA THERAPEUTICS, published 2021)
# T1: cynomolgus macaque (Macaca fascicularis) CD39 (Macaca fascicularis, UniProt P49961 7-510 (human entry))
# T1 construct: On engineered CHO cells and on primary cyno B cells and monocytes; also called cyno CD39; cCD39
# T1 chain: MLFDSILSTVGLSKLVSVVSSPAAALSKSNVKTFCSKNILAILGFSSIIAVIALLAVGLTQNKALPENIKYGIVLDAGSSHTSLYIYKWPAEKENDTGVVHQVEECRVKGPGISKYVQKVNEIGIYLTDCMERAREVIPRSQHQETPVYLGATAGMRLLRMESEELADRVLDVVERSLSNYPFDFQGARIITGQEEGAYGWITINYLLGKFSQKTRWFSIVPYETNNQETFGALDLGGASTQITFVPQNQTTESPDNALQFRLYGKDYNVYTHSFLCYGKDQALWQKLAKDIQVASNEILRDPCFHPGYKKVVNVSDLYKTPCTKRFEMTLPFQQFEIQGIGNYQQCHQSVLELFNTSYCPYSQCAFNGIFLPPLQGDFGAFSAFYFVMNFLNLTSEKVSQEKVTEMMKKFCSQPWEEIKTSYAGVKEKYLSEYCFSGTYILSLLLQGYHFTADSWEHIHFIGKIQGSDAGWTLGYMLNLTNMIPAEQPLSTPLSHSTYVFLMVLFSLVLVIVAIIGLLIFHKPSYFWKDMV
# T2: human CD39 (cellular) (human, UniProt P49961 1-510)
# T2 construct: Same protein on engineered CHO cells and on cells that express it endogenously; also called hCD39; cellular CD39
# T2 sequence: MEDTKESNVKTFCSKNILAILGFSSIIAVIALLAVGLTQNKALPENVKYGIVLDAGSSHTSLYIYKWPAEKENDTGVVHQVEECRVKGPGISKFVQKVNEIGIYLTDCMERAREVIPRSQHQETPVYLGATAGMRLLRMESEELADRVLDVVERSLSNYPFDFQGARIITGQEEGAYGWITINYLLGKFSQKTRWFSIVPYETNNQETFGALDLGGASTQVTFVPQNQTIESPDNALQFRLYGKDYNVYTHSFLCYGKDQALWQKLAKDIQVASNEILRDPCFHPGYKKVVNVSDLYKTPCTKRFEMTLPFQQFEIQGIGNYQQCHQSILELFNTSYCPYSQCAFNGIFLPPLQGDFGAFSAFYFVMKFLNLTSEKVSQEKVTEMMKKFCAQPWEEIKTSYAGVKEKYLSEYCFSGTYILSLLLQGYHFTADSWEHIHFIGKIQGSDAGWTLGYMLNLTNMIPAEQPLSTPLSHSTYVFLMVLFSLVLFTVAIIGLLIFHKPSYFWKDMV
# What was measured:
# [1] = target: T1, cynomolgus macaque (Macaca …); test: flow cytometry, 100 nM IgG, MFI on CHO-cCD39 / MFI on parental CHO;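 also: antibodies bound to the cells for 30 min in PBS, then bound IgG was revealed with a fluorescent goat anti-human IgG secondary antibody, 20 min on ice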
# Experimental: 100 nanomolar IgGs (each antibody is indicated as a unique clone number in the FIG.) were incubated at 25° C. for 30 minutes on ice in phosphate buffered saline (PBS) with parental CHO cells or CHO cells engineered to express either human or cynomolgus macaque (Macaca fascicularis) CD39 (CHO CD39 cells). Cells were then washed with ice cold PBS and incubated with a fluorescently labeled goat-anti-human IgG for 20 minutes on ice. Cells were washed and resuspended in ice cold PBS prior to analysis by flow cytometry.
# human CD39 (cellular) = target: T2, human CD39 (cellular); test: flow cytometry, 100 nM IgG, MFI on CHO-hCD39 / MFI on parental CHO;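 also: cells exposed to IgG for 30 min on ice in PBS, bound antibody then revealed with a fluorescent goat anti-human IgG secondary (20 min, on ice)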
Binder,Cell Binding (FOB) [1] [fold over background],Cell Binding (FOB) (human CD39 (cellular)) [fold over background]
"31896 (antibody, V domains shown) VH: QVQLVQSGAEVKKPGSSVKVSCKASGGTFSKLAISWVRQAPGQGLEWMGGIGFGTANYAQKFQGRVTITADESASTAYMELSSLRSEDTAVYYCARGGAKYASTHGMDVWGQGTTVTVSS VL: not shown",4540,1040
"31915 (antibody, human IgG4 S228P, kappa, V domains shown) VH: QVQLVQSGAEVKKPGSSVKVSCKASGGTFSSLPISWVRQAPGQGLEWMGGIGFGTANYAQKFQGRVTITADESTSTAYMELSSLRSEDTAVYYCARGGAKYASKWGMDVWGQGTTVTVSS VL: not shown",4580,1090
"27590 (antibody, V domains shown) VH: QVQLVQSGAEVKKPGSSVKVSCKASGGTFSNYAISWVRQAPGQGLEWMGGIIPIFGTANYAQKFQGRVTITADESTSTAYMELSSLRSEDTAVYYCARGPTVTATTSIGTHNWFDPWGQGTLVTVSS VL: EIVLTQSPATLSLSPGERATLSCRASQSVSSYLAWYQQKPGQAPRLLIYDASNRATGIPARFSGSGSGTDFTLTISSLEPEDFAVYYCQQRNFYPPTFGGGTKVEIK",44,33
"31421 (antibody, V domains shown) VH: QVQLVQSGAEVKKPGASVKVSCKASGYTFFSYYMYWVRQAPGQGLEWMGVINPLGGGTSYAQKFQGRVTMTRDTSTSTVYMELSSLRSEDTAVYYCARGKREGGTEYLRHWGQGTLVTVSS VL: EIVLTQSPGTLSLSPGERATLSCKASESVSSSYLAWYQQKPGQAPRLLIYYASSRATGIPDRFSGSGSGTDFTLTISRLEPEDFAVYYCQQYHRRITFGGGTKVEIK",3050,1080
"31430 (antibody, human IgG4 S228P, kappa, V domains shown) VH: QVQLVQSGAEVKKPGASVKVSCKASGYTFKSYEMHWVRQAPGQGLEWMGRINPSGGSTWYAQKFQGRVTMTRDTSTSTVYMELSSLRSEDTAVYYCARGKREGGTEYLRHWGQGTLVTVSS VL: EIVLTQSPGTLSLSPGERATLSCEASQSVSYSYLAWYQQKPGQAPRLLIYGASSRANGIPDRFSGSGSGTDFTLTISRLEPEDFAVYYCQQYHSALTFGGGTKVEIKR",3570,1220
"31431 (antibody, V domains shown) VH: QVQLVQSGAEVKKPGASVKVSCKASGYTFTSYQMHWVRQAPGQGLEWMGRINPSGGSTWYAQKFQGRVTMTRDTSTSTVYMELSSLRSEDTAVYYCARGKREGGTEYLRHWGQGTLVTVSS VL: EIVLTQSPGTLSLSPGERATLSCRASQSVASSYLAWYQQKPGQAPRLLIYGASNRHTGIPDRFSGSGSGTDFTLTISRLEPEDFAVYYCQQYHGGITFGGGTKVEIK",3530,1240
"31415 (antibody, human IgG4 S228P, kappa, V domains shown) VH: QVQLVQSGAEVKKPGASVKVSCKASGYTFTSYQMHWVRQAPGQGLEWMGRINPSGGSTWYAQKFQGRVTMTRDTSTSTVYMELSSLRSEDTAVYYCARGKREGGTEYLRSWGQGTLVTVSS VL: EIVLTQSPGTLSLSPGERATLSCRASQSVSSSYLAWYQQKPGQAPRLLIYGASSRATGIPDRFSGSGSGTDFTLTISRLEPEDFAVYYCQQYHSYITFGGGTKVEIKR",3360,1170
"31891 (antibody, human IgG4 S228P, kappa, V domains shown) VH: QVQLVQSGAEVKKPGASVKVSCKASGYIFKSYEMHWVRQAPGQGLEWMGRINPSVGSTWYAQKFQGRVTMTRDTSTSTVYMELSSLRSEDTAVYYCARGKREGGTEYLRVWGQGTLVTVSS VL: EIVLTQSPGTLSLSPGERATLSCRASQSVSSSYLAWYQQKPGQAPRLLIYYASSRAYGIPDRFSGSGSGTDFTLTISRLEPEDFAVYYCQQYHNAITFGGGTKVEIKR",4650,1030
"31429 (antibody, V domains shown) VH: QVQLVQSGAEVKKPGASVKVSCKASGYTFVSYFMHWVRQAPGQGLEWMGSINPRGGSTSYAQKFQGRVTMTRDTSTSTVYMELSSLRSEDTAVYYCARGKREGGTEYLRHWGQGTLVTVSS VL: EIVLTQSPGTLSLSPGERATLSCRASQYVSSSYLAWYQQKPGQAPRLLIYYASNRATGIPDRFSGSGSGTDFTLTISRLEPEDFAVYYCQQYHSGITFGGGTKVEIK",3800,1290
"27588 (antibody, V domains shown) VH: QVQLVQSGAEVKKPGSSVKVSCKASGGTFSNYAISWVRQAPGQGLEWMGGIIPIFGTANYAQKFQGRVTITADESTSTAYMELSSLRSEDTAVYYCARAKRGYDSYGGVYFDYWGQGTLVTVSS VL: not shown",14,10
"31393 (antibody, human IgG4 S228P, kappa, V domains shown) VH: QVQLVQSGAEVKKPGSSVKVSCKASGGTFESYGISWVRQAPGQGLEWMGSIIPEFGIANYAQKFQGRVTITADESTSTTYMELSSLRSEDTAVYYCARESGGYRDHRLDVWGQGTMVTVSS VL: EIVMTQSPATLSVSPGERATLSCRASQSVGSNLAWYQQKPGQAPRLLIYGASTRATGIPARFSGSGSGTEFTLTISSLQSEDFAVYYCQQYLLWPLTFGGGTKVEIKR",2960,1060
"31861 (antibody, human IgG4 S228P, kappa, V domains shown) VH: QVQLVQSGAEVKKPGSSVKVSCKASGGTFGSYGISWVRQAPGQGLEWMGSIIPEFGIANYAQKFQGRVTITADESTSTAYMELSSLRSEDTAVYYCARESGTYRDHRLDVWGQGTMVTVSS VL: EIVMTQSPATLSVSPGERATLSCRASQSVGSNLAWYQQKPGQAPRLLIYGASTRATGIPARFSGSGSGTEFTLTISSLQSEDFAVYYCQQYLLWPLTFGGGTKVEIKR",5480,1430
"28347 (antibody, V domains shown) VH: QVQLVQSGAEVKKPGSSVKVSCKASGGTFSSLAISWVRQAPGQGLEWMGGIIPIFGTANYAQKFQGRVTITADESTNTAYMELSSLRSEDTAVYYCARGGAKYASTYGMDVWGQGTTVTVSS VL: not shown",1340,1020
"27596 (antibody, human IgG4 S228P, kappa, V domains shown) VH: QVQLVQSGAEVKKPGSSVKVSCKASGGTFSSYAISWVRQAPGQGLEWMGGIIPIFGTANYAQKFQGRVTITADESTSTAYMELSSLRSEDTAVYYCARDPLGIRKHWFDPWGQGTLVTVSS VL: EIVMTQSPATLSLSPGERATLSCRASQSVSSYLAWYQQKPGQAPRLLIYDASNRATGIPARFSGSGSGTDFTLTISSLEPEDFAVYYCQQHTVWPITFGGGTKVEIKR",257,252
"27597 (antibody, human IgG4 S228P, kappa, V domains shown) VH: QVQLVQSGAEVKKPGSSVKVSCKASGGTFSSYAISWVRQAPGQGLEWMGSIIPIFGTANYAQKFQGRVTITADESTSTAYMELSSLRSEDTAVYYCAREGRGYDSSRYYKFWFDPWGQGTLVTVSS VL: EIVLTQSPATLSLSPGERATLSCRASQSVSSYLAWYQQKPGQAPRLLIYDASNRATGIPARFSGSGSGTDFTLTISSLEPEDFAVYYCQQFVLWPRTFGGGTKVEIKR",908,799
"27589 (antibody, human IgG4 S228P, kappa, V domains shown) VH: QVQLVQSGAEVKKPGSSVKVSCKASGGTFSSYAISWVRQAPGQGLEWMGGIIPIFGTANYAQKFQGRVTITADESTSTAYMELSSLRSEDTAVYYCARDSGYHRHYSDYWGQGTLVTVSS VL: DIQMTQSPSTLSASVGDRVTITCRASQSISSWLAWYQQKPGKAPKLLIYKASSLESGVPSRFSGSGSGTEFTLTISSLQPDDFATYYCQQYGLFPITFGGGTKVEIKR",531,311
